The values that follow come from article PMC10090139.

The test has as its target endogenous KIT of C57 mouse mast cells (UniProt P05532). As to the kind of experiment: immunoprecipitation with anti-Flag antibody and immunoblot, densitometric analysis by ImageJ. The following applies: n = 4, p = 0.0013 (two-tailed unpaired Student's t-test), parent: est. 1.0, read off a plot.
Sequence of UniProt P05532 (P05532 25-979): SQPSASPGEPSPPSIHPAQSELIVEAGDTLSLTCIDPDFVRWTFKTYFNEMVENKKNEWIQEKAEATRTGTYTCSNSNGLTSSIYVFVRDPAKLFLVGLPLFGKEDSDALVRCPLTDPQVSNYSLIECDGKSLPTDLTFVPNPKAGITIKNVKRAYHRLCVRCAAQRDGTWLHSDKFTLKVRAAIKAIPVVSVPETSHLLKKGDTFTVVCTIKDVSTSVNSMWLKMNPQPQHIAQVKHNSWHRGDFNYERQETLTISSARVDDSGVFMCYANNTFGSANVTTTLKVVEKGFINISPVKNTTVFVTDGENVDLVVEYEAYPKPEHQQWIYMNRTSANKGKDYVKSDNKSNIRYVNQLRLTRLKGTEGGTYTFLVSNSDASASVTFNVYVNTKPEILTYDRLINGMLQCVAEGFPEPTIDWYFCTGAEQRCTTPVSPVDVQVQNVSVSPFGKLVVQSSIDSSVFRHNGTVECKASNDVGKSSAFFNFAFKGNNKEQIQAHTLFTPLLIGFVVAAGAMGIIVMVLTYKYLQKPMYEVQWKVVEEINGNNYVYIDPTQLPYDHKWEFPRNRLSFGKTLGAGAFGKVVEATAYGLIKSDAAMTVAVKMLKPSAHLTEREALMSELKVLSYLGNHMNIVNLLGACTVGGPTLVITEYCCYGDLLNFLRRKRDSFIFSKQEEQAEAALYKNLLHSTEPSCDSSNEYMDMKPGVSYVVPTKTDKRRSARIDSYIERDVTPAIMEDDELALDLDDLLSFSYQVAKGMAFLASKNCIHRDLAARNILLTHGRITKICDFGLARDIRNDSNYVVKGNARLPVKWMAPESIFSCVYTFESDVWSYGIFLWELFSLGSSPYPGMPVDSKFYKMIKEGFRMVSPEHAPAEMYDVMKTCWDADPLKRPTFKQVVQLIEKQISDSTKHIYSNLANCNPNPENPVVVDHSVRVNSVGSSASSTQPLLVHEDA

In the case of “wild-type MCEMP1 with carboxyl-terminal Flag, stably expressed in C57 mouse mast cells (from UniProt Q8IX19) YF”, the ratio to parent was 0.45.
